The assay addresses purified complement factor H protein (UniProt P06909). Kind of assay: SPR; CFH immobilised by amine coupling on a sensor chip; rTraT at 80, 40, 20, 10, 5 or 2.5 µg/ml. A general note: In SPR one partner is held on a chip, and binding of the other changes the refractive index at the surface.
Chain of UniProt P06909 (P06909 19-1234): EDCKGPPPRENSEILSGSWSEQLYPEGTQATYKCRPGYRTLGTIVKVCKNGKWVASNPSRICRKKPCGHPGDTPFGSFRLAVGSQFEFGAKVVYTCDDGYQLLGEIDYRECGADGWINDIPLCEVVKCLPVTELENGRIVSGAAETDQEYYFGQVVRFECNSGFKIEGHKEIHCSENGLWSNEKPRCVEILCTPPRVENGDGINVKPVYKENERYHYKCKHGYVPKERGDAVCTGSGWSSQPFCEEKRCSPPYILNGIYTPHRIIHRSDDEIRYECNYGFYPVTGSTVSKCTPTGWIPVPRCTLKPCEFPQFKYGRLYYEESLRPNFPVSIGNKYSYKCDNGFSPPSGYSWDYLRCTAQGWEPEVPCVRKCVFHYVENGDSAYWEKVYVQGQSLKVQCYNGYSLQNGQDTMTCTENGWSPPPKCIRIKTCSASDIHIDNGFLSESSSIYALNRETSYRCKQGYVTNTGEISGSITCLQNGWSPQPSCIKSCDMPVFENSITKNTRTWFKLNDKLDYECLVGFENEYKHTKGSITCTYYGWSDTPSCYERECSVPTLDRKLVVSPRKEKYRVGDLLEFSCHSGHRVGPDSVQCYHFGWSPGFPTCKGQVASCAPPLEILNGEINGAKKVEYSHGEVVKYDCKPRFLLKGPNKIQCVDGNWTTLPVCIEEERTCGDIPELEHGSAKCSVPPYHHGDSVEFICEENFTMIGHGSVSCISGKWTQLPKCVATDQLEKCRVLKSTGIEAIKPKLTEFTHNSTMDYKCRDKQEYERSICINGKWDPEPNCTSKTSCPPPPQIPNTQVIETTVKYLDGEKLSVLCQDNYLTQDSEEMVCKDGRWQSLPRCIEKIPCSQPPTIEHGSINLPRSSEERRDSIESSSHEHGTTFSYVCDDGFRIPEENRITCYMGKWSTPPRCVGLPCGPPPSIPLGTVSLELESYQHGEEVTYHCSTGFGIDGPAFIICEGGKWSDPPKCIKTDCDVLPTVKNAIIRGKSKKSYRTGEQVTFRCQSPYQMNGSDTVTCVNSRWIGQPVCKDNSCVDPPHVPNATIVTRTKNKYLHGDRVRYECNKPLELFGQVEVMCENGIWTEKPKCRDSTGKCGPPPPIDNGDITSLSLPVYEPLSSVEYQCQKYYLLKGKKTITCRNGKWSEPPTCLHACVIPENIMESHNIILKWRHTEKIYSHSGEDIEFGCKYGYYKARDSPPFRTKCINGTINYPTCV

What is called Kd is the free concentration of one partner at which half of the binding sites on the other are occupied at equilibrium, for simple one-to-one binding. The low end stands for tighter binding, the high end for weaker binding. In the case of “recombinant TraT (rTraT) (domain or fragment)”, the Kd came to 3.15 µM.

The record behind these values is publication PMC9243006.
